Laboratory results: patent publication US20050261179

Key:
[1] = target: T1, adrenomedullin (synthetic human AM)
T1 chain: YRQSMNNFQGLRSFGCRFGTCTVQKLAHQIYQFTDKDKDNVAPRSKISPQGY

[2] = target: T2, human complement factor H, P08603
T2 chain: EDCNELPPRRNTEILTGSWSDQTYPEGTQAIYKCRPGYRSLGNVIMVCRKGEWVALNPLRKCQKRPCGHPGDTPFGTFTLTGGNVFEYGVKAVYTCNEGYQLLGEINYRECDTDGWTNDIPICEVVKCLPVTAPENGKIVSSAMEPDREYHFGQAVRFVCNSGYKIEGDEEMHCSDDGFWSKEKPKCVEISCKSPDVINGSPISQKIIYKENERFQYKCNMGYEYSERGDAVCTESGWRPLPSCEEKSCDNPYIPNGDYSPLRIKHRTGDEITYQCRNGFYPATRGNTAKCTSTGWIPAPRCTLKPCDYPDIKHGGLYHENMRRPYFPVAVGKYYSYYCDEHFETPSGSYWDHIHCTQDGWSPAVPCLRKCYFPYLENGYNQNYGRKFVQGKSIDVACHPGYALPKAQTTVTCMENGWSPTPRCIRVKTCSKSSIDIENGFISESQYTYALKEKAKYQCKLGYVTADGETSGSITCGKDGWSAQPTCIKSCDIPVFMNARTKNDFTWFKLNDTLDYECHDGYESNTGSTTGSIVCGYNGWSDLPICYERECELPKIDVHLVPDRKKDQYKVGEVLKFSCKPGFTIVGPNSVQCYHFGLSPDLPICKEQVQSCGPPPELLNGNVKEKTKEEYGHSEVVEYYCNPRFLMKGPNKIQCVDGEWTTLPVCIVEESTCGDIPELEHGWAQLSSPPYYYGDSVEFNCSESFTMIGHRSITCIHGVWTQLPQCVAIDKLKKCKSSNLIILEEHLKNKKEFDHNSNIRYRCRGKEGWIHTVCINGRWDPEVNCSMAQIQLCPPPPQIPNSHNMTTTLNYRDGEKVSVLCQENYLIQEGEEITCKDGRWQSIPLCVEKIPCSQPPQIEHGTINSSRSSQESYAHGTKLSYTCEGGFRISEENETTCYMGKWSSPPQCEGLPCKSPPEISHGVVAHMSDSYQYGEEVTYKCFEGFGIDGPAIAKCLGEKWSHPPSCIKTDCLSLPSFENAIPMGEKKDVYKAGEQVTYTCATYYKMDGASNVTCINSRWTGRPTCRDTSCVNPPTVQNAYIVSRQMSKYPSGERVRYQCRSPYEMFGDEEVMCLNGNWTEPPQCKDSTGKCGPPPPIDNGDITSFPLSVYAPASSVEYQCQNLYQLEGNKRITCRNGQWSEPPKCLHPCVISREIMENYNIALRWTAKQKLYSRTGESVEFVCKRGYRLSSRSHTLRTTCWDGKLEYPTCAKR

B1: human recombinant MMP-2 (protein)
chain: YNFFPRKPKWDKNQITYRIIGYTPDLDPETVDDAFARAFQVWSDVTPLRFSRIHDGEADIMINFGRWEHGDGYPFDGKDGLLAHAFAPGTGVGGDSHFDDDELWTLGEGQVVRVKYGNADGEYCKFPFLFNGKEYNSCTDTGRSDGFLWCSTTYNFEKDGKYGFCPHEALFTMGGNAEGQPCKFPFRFQGTSYDSCTTEGRTDGYRWCGTTEDYDRDKKYGFCPETAMSTVGGNSEGAPCVFPFTFLGNKYESCTSAGRSDGKMWCATTANYDDDRKWGFCPDQGYSLFLVAAHEFGHAMGLEHSQDPGALMAPIYTYTKNFRLSQDDIKGIQELYGASPDIDLGTGPTPTLGPVTPEICKQDIVFDGIAQIRGEIFFFKDRFIWRTVTPRDKPMGPLLVATFWPELPEKIDAVYEAPQEEKAVFFAGNEYWIYSASTLERGYPKPLTSLGLPPDVQRVDAAFNWSKNKKTYIFAGDKFWRYNEVKKKMDPGFPKLIADAWNAIPDNLDAVVDLQGGGHSYFFKGAYYLKLENQSLKSVKFGSIKSDWLGC
AM fragments generated by MMP-2 digestion (mass spectrometry of HPLC peaks) [1]: These include AM(8-52), AM(11-52), AM(23-52), AM(29-52), AM(11-28), and AM(11-22)
degradation of synthetic AM (gel, HPLC, mass spectrometry) [1]: MMP-2 rapidly cleaves synthetic AM in a time-dependent manner
degradation of factor H (gel) [2]: is not a substrate for either one of the MMPs
